Experimental findings from US11814447B2, “Peptide ligands for binding to EphA2” (BICYCLERD LIMITED, priority 2018, dated 2023) are described below.

Read-outs that look alike come from different tables or passages of the source. Starred links: 1 amine or outer side, 2 acyl side, 3 side chain; linkers in the order of their positions; H or OH if unused. Positions of bridges follow the written chain, without caps; N, C: chain ends. Non-standard residues stand in square brackets, D forms with d. Primed or numbered codes have the meaning given here. No end group written: not given here. TBMB′ = 1,3,5-tris(bromomethyl)benzene, 1,3,5-tris(methylene)benzene core, three thioethers to Cys; TATA = O=C(CC[*:1])N1CN(C(=O)CC[*:2])CN(C(=O)CC[*:3])C1; TBMB = c1c(C[*:1])cc(C[*:3])cc1C[*:2]; Sar = CNCC(=O)O

One assay has as its target T1, Human EphA2 (Homo sapiens, UniProt P29317).
T1 construct: EphA2 (Ecto); polyHis (C)
Nature of the assay: Fluorescence polarisation competition binding assay. The protocol: 1. Fluorescence Polarisation Measurements
(b) Competition Binding Assay
Peptides without a fluorescent tag were tested in competition with a peptide with a fluorescent tag and a known Kd (Table 2). Peptides were diluted to an appropriate concentration in assay buffer as described in the direct binding assay with a maximum of 5% DMSO, then serially diluted 1 in 2. […] Measurements were conducted as for the direct binding assay, however the gain was determined prior to the first measurement. Data analysis was in Systat Sigmaplot version 12.0 where the mP values were fit to a user defined cubic equation to generate a Ki value: f=y min+(y max−y min)/Lig*((Lig*((2*((Klig+Kcomp+Lig+Comp−Prot*c)^2−3*(Kcomp*(Lig−Prot*c)+Klig*(Comp−Prot*c)+Klig*Kcomp))^0.5*COS(ARCCOS((−2*(Klig+Kcomp+Lig+Comp−Prot*c)^3+9*(Klig+Kcomp+Lig+Comp−Prot*c)*(Kcomp*(Lig−Prot*c)+Klig*(Comp−Prot*c)+Klig*Kcomp)−27*(−1*Klig*Kcomp*Prot*c))/(2*(4(Klig+Kcomp+Lig+Comp−Prot*c)^2−3*(Kcomp*(Lig−Prot*c)+Klig*(Comp−Prot*c)+Klig*Kcomp))^3)^0.5)))/3))−(Klig+Kcomp+Lig+Comp−Prot*c)))/((3*Klig)+42*((Klig+Kcomp+Lig+Comp−Prot*c)^2−3*(Kcomp*(Lig−Prot*c)+Klig*(Comp−Prot*c)+Klig*Kcomp))^0.5*COS(ARCCOS((−2*(Klig+Kcomp+Lig+Comp−Prot*c)^3+9*(Klig+Kcomp+Lig+Comp−Prot*c)*(Kcomp*(Lig−Prot*c)+Klig*(Comp−Prot*c)+Klig*Kcomp)−27*(−1*Klig*Kcomp*Prot*c))/(2*(4(Klig+Kcomp+Lig+Comp−Prot*c)^2−3*(Kcomp*(Lig−Prot*c)+Klig*(Comp−Prot*c)+Klig*Kcomp))^3)^0.5)))/3))−(Klig+Kcomp+Lig+Comp−Prot*c)))).
“Lig”, “KLig” and “Prot” were all defined values relating to: fluorescent peptide concentration, the Kd of the fluorescent peptide and EphA2 concentration respectively.

Assay [1] concerns the target T2, Human EphA2 (Ecto) (Human, UniProt P29317 24-537).
T2 construct: extracellular domain; in-house)
The experiment in a line: FP competition; tracer Reference Compound B. The protocol: (§1) Peptides without a fluorescent tag were tested in competition with a peptide with a fluorescent tag and a known Kd (Table 2). Peptides were diluted to an appropriate concentration in assay buffer as described in the direct binding assay with a maximum of 5% DMSO, then serially diluted 1 in 2. […] Measurements were conducted as for the direct binding assay, however the gain was determined prior to the first measurement. Data analysis was in Systat Sigmaplot version 12.0 where the mP values were fit to a user defined cubic equation to generate a Ki value: […]
T2 sequence (P29317 24-537): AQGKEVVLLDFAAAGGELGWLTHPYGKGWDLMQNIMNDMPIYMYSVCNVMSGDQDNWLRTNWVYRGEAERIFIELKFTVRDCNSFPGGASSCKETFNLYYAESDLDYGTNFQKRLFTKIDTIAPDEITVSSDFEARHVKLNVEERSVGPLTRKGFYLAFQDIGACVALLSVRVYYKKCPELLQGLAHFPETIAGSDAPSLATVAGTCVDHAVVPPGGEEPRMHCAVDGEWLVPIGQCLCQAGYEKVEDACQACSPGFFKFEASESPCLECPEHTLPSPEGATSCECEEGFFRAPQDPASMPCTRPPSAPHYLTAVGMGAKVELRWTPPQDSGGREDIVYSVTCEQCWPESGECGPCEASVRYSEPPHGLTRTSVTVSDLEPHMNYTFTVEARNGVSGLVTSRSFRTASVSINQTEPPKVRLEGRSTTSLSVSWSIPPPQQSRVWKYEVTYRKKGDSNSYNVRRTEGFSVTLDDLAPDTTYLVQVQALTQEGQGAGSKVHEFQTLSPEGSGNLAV

In assay [2] the target is T2, Human EphA2 (Ecto). The experiment in a line: FP competition; tracer Reference Compound C. The procedure, abridged: (§2)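 Unlabelled peptides competed against a fluorescently tagged peptide of known Kd. Peptides were diluted in direct-binding assay buffer (≤5% DMSO) and serially diluted 1 in 2. Read as in the direct binding assay, with gain set before the first read; mP values fit to a cubic equation to give Ki.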

Assay [3] deals with T3, Human EphA2 (Ecto) (Human, UniProt P29317 24-537).
T3 construct: extracellular domain
Nature of the assay: FP competition, tracer Compound 66.
T3 sequence (P29317 24-537): as above

In assay [4] the target is T3, Human EphA2 (Ecto). The experiment in a line: FP competition, tracer Compound 18. The protocol: as §1
In a further assay the target is T4, Mouse EphA2 (Ecto) (Mouse, UniProt Q03145 26-538).
T4 construct: extracellular domain; C-terminal polyHis; not shown: Fc fusion or C-terminal polyHis
Nature of the assay: FP competition; tracer Reference Compound C. In outline:
as §2

For assay [5], the target named is T3, Human EphA2 (Ecto). Nature of the assay: FP competition, tracer Compound 18. On the procedure: as §1
This is another data set of the same source.

[6] abbreviates: read-out: Ki, nM ± 95% CI Human EphA2 Fluorescent peptide Compound 18, Table 9, Ala scan peptides.
Where [7] appears, read: read-out: Ki, nM ± 95% CI, Human EphA2, competition binding assay, fluorescent peptide Compound 18, TBMB scaffold reference peptides.

T4 sequence (Q03145 26-538): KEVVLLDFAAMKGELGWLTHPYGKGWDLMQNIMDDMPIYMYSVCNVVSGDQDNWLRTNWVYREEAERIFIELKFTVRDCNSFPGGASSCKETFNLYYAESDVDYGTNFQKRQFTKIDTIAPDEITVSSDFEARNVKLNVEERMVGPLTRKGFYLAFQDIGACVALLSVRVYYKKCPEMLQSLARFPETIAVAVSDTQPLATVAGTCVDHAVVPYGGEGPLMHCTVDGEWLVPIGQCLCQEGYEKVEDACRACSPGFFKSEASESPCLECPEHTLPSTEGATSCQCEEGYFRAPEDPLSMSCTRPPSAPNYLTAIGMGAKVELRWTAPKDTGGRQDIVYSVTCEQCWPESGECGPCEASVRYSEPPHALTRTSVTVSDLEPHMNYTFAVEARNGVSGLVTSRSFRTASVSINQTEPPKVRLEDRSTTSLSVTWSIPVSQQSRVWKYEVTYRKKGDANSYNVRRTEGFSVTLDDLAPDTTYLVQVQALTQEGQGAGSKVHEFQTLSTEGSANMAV
T1 sequence (P29317 24-537 limits assumed): as the sequence (P29317 24-537) above

For the molecule “ADVHCPWGPFWCPV[dA]RPGCA (cysteine pairing not given here) [Compound 155]”, the inhibition constant Ki at Human EphA2 (setting [6]) and on Human EphA2 (setting [7]) was 2 nM in each case. Take “ADVHCPWGPFWC[dA]VNRPGCA (cysteine pairing not given here) [Compound 154]”: the Ki on Human EphA2 (setting [6]) and on Human EphA2 (setting [7]) was 101 nM in each case. In the case of ACSPTPACAVQNLCA (linker 2-8-14 via TATA) [Bicycle Compound Number 31 (TATA scaffold), ACSPTPACAVQNLCA], the Ki amounted to 177 nM in the assay with Human EphA2 (Ecto) [1] and 223 nM with Human EphA2 (Ecto) [2].

[Sar][Sar]ACPWG[dA]FWCPVNRPGC (linker 4-11-18 via TBMB) [Bicycle Compound 297] yielded a Ki with Human EphA2 (Ecto) [3] of 1500 nM. [Sar][Sar]ACPWGPAWCPVNRPGC (linker 4-11-18 via TBMB) [Bicycle Compound 83]: the Ki in the assay with Human EphA2 (Ecto) [4] stood at 199 nM; with Human EphA2 (Ecto) [3], 288 nM. In turn, [Sar][Sar]ACPWGPFWCPANRPGC (linker 4-11-18 via TBMB) [Bicycle Compound 292] returned a Ki with Human EphA2 (Ecto) [3] of 954 nM.

B1: Bicycle Compound Number 68 (TATA scaffold), Ac-ARDCPLVNPLCLHPGWTCA-Sar6-(D-K) (peptide)
peptide: ARDCPLVNPLCLHPGWTCAXXXXXXK
modifications: N-terminal acetyl; X at 20-25 = Sar (sarcosine); K26 = D-Lys; 3 Cys thioether-linked to TATA scaffold
Turning to B1, the Ki came out at 19.3 nM with Human EphA2 (Ecto) [2] and 166 nM with Mouse EphA2 (Ecto).

B2: Bicycle Compound Number 78 (TATA scaffold), Ac-CPLVNPLCLHPGWTCL(D-His)G-Sar6-(D-K) (peptide)
peptide: CPLVNPLCLHPGWTCLHGXXXXXXK
modifications: N-terminal acetyl; H17 = D-His; X at 19-24 = Sar; K25 = D-Lys; 3 Cys thioether-linked to TATA scaffold
For B2, the Ki worked out at 15.6 nM in the assay with Human EphA2 (Ecto) [2] and 115 nM with Mouse EphA2 (Ecto). ACPLVNPLCLHPGWTCLHG (linker 2-9-16 via TATA) [Bicycle Compound Number 73 (TATA scaffold), ACPLVNPLCLHPGWTCLHG] registered a Ki in the assay with Mouse EphA2 (Ecto) of 7.27 nM.

B3: Bicycle Compound Number 91 (BCY6042) (TATA scaffold), Ac-CPLVNPLCLHPGWSCRGQ-Sar6-(D-K) (peptide)
peptide: CPLVNPLCLHPGWSCRGQXXXXXXK
modifications: N-terminal acetyl; X at 19-24 = Sar; K25 = D-Lys; 3 Cys thioether-linked to TATA scaffold
Regarding B3, the Ki in the assay with Human EphA2 (Ecto) [2] was 5.98 nM; with Mouse EphA2 (Ecto) it was 49.9 nM.

B4: Bicycle Compound Number 92 (TATA scaffold), Ac-CPLVNPLCLHPGWSC(HArg)GQ-Sar6-(D-K) (peptide)
peptide: CPLVNPLCLHPGWSCXGQXXXXXXK
modifications: N-terminal acetyl; X16 = HArg (homoarginine); X at 19-24 = Sar; K25 = D-Lys; 3 Cys thioether-linked to TATA scaffold
On to B4, for which the Ki stood at 10.6 nM with Human EphA2 (Ecto) [2] and 75.3 nM with Mouse EphA2 (Ecto). Regarding [Sar][Sar]ACPWGPFWCPVNRPAC (linker 4-11-18 via TBMB) [Bicycle Compound 111], the Ki with Human EphA2 (Ecto) [4] is 108 nM; in the assay with Human EphA2 (Ecto) [3] it was 238 nM.

Regarding [Sar][Sar]ACPW[dA]PFWCPVNRPGC (linker 4-11-18 via TBMB) [Bicycle Compound 296], the Ki with Human EphA2 (Ecto) [3] came out at 1000 nM. For the molecule [Sar][Sar]ACPWGPFWCPVN[dA]PGC (linker 4-11-18 via TBMB) [Bicycle Compound 302], the Ki was over 1000 nM with Human EphA2 (Ecto) [4] and 1410 nM with Human EphA2 (Ecto) [3]. In the assay with Human EphA2 (Ecto) [3], [Sar][Sar]ACAWGPFWCPVNRPGC (linker 4-11-18 via TBMB) [Bicycle Compound 286] yielded a Ki of 886 nM. As for [Sar][Sar]ACPWGPFWCPVNRAGC (linker 4-11-18 via TBMB) [Bicycle Compound 104], the Ki with Human EphA2 (Ecto) [4] amounted to 124 nM; with Human EphA2 (Ecto) [3] it was 194 nM. For [Sar][Sar]ACPWGPFWCPV[dA]RPGC (linker 4-11-18 via TBMB) [Bicycle Compound 102], the figures for the Ki with Human EphA2 (Ecto) [4] and in the assay with Human EphA2 (Ecto) [3] were 317 nM and 312 nM, respectively. [Sar][Sar]ACPWGPFWCPVNRP[dA]C (linker 4-11-18 via TBMB) [Bicycle Compound 112]: the Ki was 89 nM in the assay with Human EphA2 (Ecto) [4] and 110 nM with Human EphA2 (Ecto) [3]. For the molecule XXXXXXXXXXXACPLVNPLCLHPGWSCRGQ (N-terminal (β-Ala)-Sar10; 3 Cys thioether-linked to TATA scaffold) [Bicycle Compound Number 89 (TATA scaffold), (β-Ala)-Sar10-ACPLVNPLCLHPGWSCRGQ], the Ki in the assay with Human EphA2 (Ecto) [2] is 2.86 nM; with Mouse EphA2 (Ecto) it was 29.6 nM. With ACPLVNPLCLHPGWSCRGQ (linker 2-9-16 via TATA) [Bicycle Compound Number 87 (BCY6026) (TATA scaffold), ACPLVNPLCLHPGWSCRGQ], the results for the Ki with Human EphA2 (Ecto) [2] and with Mouse EphA2 (Ecto) were 2.57 nM and 18.6 nM, respectively. For XXXXXXXXXXXARDCPLVNPLCLHPGWTC (N-terminal (β-Ala)-Sar10; 3 Cys thioether-linked to TATA scaffold) [Bicycle Compound Number 66 (BCY6099) (TATA scaffold), (β-Ala)-Sar10-ARDCPLVNPLCLHPGWTC], the values for the Ki with Human EphA2 (Ecto) [2] and with Mouse EphA2 (Ecto) were 4.94 nM and 57.6 nM, respectively. As to [Sar][Sar]ACPWGAFWCPVNRPGC (linker 4-11-18 via TBMB) [Bicycle Compound 289], the Ki with Human EphA2 (Ecto) [4] is over 1000 nM; in the assay with Human EphA2 (Ecto) [3] it was 1100 nM. For the molecule [Sar][Sar]ACPWGPFWCPVARPGC (linker 4-11-18 via TBMB) [Bicycle Compound 101], the affinity in the assay with Human EphA2 (Ecto) [3], expressed as Ki, was 265 nM.

For the molecule [Sar][Sar]ACPWGPFWCPVNR[dA]GC (linker 4-11-18 via TBMB) [Bicycle Compound 105], the Ki with Human EphA2 (Ecto) [4] turned out to be 677 nM; in the assay with Human EphA2 (Ecto) [3] it was 471 nM.

Turning to [Sar][Sar]ACPWGPFWCAVNRPGC (linker 4-11-18 via TBMB) [Bicycle Compound 291], the Ki in the assay with Human EphA2 (Ecto) [4] is over 1000 nM.

Ac-[Sar][Sar]A[dD]VTCPWGPAWCPVNRPGC (linker 7-14-21 via TBMB′) [Bicycle Compound 173]: the Ki with Human EphA2 (Ecto) [5] and in the assay with Human EphA2 (Ecto) [4] was 6.69 nM throughout. [Sar][Sar]ACPWGPFWCPVNAPGC (linker 4-11-18 via TBMB) [Bicycle Compound 293] yielded a Ki in the assay with Human EphA2 (Ecto) [3] of 711 nM.

B5: Bicycle Compound Number 77 (BCY6019) (TATA scaffold), Ac-CPLVNPLCLHPGWTCLHG-Sar6-(D-K) (peptide)
peptide: CPLVNPLCLHPGWTCLHGXXXXXXK
modifications: N-terminal acetyl; X at 19-24 = Sar; K25 = D-Lys; 3 Cys thioether-linked to TATA scaffold
Take B5: the Ki was 5.41 nM with Human EphA2 (Ecto) [2] and 48.2 nM in the assay with Mouse EphA2 (Ecto). As for ARDCPLVNPLCLHPGWTCA (linker 4-11-18 via TATA) [Bicycle Compound Number 65 (TATA scaffold), ARDCPLVNPLCLHPGWTCA], the Ki was found to be 6.05 nM with Human EphA2 (Ecto) [2] and 39.1 nM with Mouse EphA2 (Ecto).

B6: Bicycle Compound Number 76 (TATA scaffold), (β-Ala)-Sar10-ACPLVNPLCLHPGWTCL(D-His)G (peptide)
peptide: XXXXXXXXXXXACPLVNPLCLHPGWTCLHG
modifications: X1 = β-Ala; X at 2-11 = Sar; H29 = D-His; 3 Cys thioether-linked to TATA scaffold
Take B6: the Ki with Human EphA2 (Ecto) [2] is 10 nM; in the assay with Mouse EphA2 (Ecto), 75.2 nM. Consider ADVHCPWAPFWCPVNRPGCA (linker 5-12-19 via TBMB) [Bicycle Compound 151], for which the Ki in the assay with Human EphA2 (Ecto) [5] and with Human EphA2 (Ecto) [4] was 394 nM in each case.

In the case of ADVHCPWGAFWCPVNRPGCA (linker 5-12-19 via TBMB) [Bicycle Compound 152], the Ki in the assay with Human EphA2 (Ecto) [5] and in the assay with Human EphA2 (Ecto) [4] was 1.8 nM throughout. As for ADVHCPWGPFWCPVN[dA]PGCA (linker 5-12-19 via TBMB) [Bicycle Compound 156], the Ki in the assay with Human EphA2 (Ecto) [5] and in the assay with Human EphA2 (Ecto) [4] was 14.9 nM each time.

Regarding ADVHCPWGPFWCPV[dA]RPGCA (linker 5-12-19 via TBMB) [Bicycle Compound 155], the Ki with Human EphA2 (Ecto) [5] and with Human EphA2 (Ecto) [4] was 2 nM in each case.
